Reference: patent US20160058880

Assays:
[1] = system: Succinyl-βALPF-doxorubicin
[2] = system: N-succinyl-beta-alanyl-L-leucyl-L-alanyl-L-leucyl-doxorubicin

TOP (recombinant human thimet oligopeptidase, R&D systems, Ref 3439-ZN)
cleavage by purified TOP 5 nM (grade) (PhAc-KLGP-doxorubicin): + | cleavage by purified TOP 5 nM (grade) (LGP-Dox): - | cleavage by purified TOP 5 nM (grade) [1]: - | cleavage by purified TOP 5 nM (grade) (PhAc-ALAL-doxorubicin): + | cleavage by purified TOP 5 nM (grade) (PhAc-DLGP-doxorubicin): - | cleavage by purified TOP 5 nM (grade) (PhAc-TSGP-doxorubicin): + | cleavage by purified TOP 5 nM (grade; * = less than 5% of metabolites detected) (PhAc-ALPF-doxorubicin): -* | cleavage by purified TOP 5 nM (grade) (PhAc-GPGP-doxorubicin): - | cleavage by purified TOP 5 nM (grade; * = less than 5% of metabolites detected) (PhAc-AIGP-doxorubicin): -* | cleavage by purified TOP 5 nM (grade) (PhAc-ALGP-doxorubicin): + | cleavage by purified TOP 5 nM (grade; * = less than 5% of metabolites detected) (PhAc-ALAF-doxorubicin): -* | cleavage by purified TOP 5 nM (grade) [2]: +
